6 molecules from US10005846 (LIFEARC, dated 2018) can be followed below.

Assay [1] deals with T1, human transglutaminase type 2 (TG2) (human, UniProt P21980 1-687).
T1 sequence: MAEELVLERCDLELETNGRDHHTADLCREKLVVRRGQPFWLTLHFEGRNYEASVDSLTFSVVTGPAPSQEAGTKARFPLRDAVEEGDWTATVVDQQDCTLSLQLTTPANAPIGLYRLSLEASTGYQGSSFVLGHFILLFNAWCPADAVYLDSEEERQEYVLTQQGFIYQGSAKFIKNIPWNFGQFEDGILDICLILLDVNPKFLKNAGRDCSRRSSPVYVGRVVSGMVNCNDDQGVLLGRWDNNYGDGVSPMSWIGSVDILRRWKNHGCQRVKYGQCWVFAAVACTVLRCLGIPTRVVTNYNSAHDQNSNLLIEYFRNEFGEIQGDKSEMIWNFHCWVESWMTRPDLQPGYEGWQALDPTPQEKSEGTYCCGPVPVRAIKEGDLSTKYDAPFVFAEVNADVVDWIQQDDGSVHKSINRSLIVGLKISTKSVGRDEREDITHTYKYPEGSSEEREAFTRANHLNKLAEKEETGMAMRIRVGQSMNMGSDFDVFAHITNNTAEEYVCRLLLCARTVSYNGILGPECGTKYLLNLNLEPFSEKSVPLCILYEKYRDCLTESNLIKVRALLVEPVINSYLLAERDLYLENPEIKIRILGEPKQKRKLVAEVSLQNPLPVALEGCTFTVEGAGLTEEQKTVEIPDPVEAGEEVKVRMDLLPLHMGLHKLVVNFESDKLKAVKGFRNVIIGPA
Description: cell-based or functional assay.

In assay [2] the target is T2, cynomolgus monkey TG2 (cynomolgus monkey, UniProt A0A2K5VXI8 1-687).
T2 sequence: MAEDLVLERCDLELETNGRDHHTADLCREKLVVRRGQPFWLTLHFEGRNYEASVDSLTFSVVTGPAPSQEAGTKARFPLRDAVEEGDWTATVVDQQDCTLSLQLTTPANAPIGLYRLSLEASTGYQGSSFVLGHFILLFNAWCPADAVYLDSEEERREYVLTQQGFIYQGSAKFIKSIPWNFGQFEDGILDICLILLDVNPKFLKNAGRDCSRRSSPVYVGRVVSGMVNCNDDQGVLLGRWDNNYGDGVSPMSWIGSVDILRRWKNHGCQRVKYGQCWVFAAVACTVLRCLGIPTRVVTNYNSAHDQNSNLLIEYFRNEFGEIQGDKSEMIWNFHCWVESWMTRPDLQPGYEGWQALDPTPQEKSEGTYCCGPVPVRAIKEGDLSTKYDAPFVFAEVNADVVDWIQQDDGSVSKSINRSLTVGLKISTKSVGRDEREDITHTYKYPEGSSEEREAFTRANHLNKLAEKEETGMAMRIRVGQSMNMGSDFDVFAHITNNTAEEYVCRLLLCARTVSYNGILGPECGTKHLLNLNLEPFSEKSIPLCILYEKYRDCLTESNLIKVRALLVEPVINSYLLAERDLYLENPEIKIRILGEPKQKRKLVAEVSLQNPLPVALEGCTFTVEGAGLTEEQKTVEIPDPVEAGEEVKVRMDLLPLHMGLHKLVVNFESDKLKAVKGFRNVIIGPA
Description: cell-based or functional assay.

The target of assay [3] is T1, human transglutaminase type 2 (TG2). In words: ELISA on immobilised human TG2; r2 0.9985; EC50 95% confidence range 0.3927 to 0.4971 [panel A]. The method, then:
(§1) Antibody binding to human and cynomolgus monkey TG2 was determined in an ELISA assay. Clear polystyrene "Maxisorp" 96-well plates (Nunc) were coated with 50 ng purified human or cynomogulus monkey TG2 in 50 µl 0.05 M carbonate-bicarbonate buffer pH 9.6 at 4° C. overnight. Control wells were coated with 50 µl 100 µg/ml bovine serum albumin (BSA). Plates were washed 3× with 300 µl phosphate-buffered saline pH7.4 (PBS) containing 0.1% Tween 20 (PBST) and blocked with 300 µl 3% w/v Marvel skimmed milk in PBS for 1 hour at room temperature. After 3× wash with PBST, 50 µl protein-A purified chimeric or humanised anti-TG2 antibodies or human IgG1 kappa […] control antibody or CUB7402 (Abcam) were serially diluted 4-fold from a top concentration of 50 nM in PBS, and added to the plate in duplicate. […] After 3× washes with PBST, the plates were developed with 50 µl TMB substrate (Sigma) for 5 min at room temperature before stopping the reaction with 25 µl 0.5M H2SO4 and reading absorbance at 450 nm in a microtiter plate reader (BioTek EL808). Dose response curves were analysed and EC50 values and other statistical parameters determined using a 4-parameter logistical fit of the data (GraphPad Prism).
(In general: In an ELISA, binding on a coated surface is turned into a signal by an enzyme label.)

The target in assay [4] is T2, cynomolgus monkey TG2. In words: ELISA on immobilised cynomolgus monkey TG2; r2 0.9993; EC50 95% confidence range 0.3887 to 0.4489 [panel A]. The method, then:
as §1

The target of assay [5] is T1, human transglutaminase type 2 (TG2). In words: SPR (Biacore T200), antibody captured on anti-human IgG1 Fc chip, TG2 injected; calcium condition not marked in the row. The method, then:
(§2) Recombinant cynomolgus monkey TG2 was obtained from Trenzyme. Surface plasmon resonance (SPR) was measured on a Biacore T200 instrument (GE Healthcare). CM5 chips (GE Healthcare cat. no.: BR-1006-68) were coated with monoclonal mouse anti-human IgG1 (Fc) (MAH) antibody (GE Healthcare cat. no.: BR-1008-39) by amine-coupling as described in the manufacturers instructions. HBS-EP+ buffer (0.01 M HEPES, 0.15 M NaCl, 3 mM EDTA, 0.05% v/v Surfactant P20) and HBS-P+ buffer (0.01 M HEPES, 0.15 M NaCl, 0.05% Surfactant P20) were purchased from GE Healthcare as 10× stocks (cat. nos.: BR-1006-69 and BR-1006-71). Calcium Chloride solution was obtained from Sigma Aldrich (cat. no.:21115).
(§3) The method employed to determine the affinity of the anti-TG2 antibodies involved the capture of the chimeric or humanised antibodies on a MAH coated CM5 chip, followed by the injection of a series of TG2 samples in running buffer. The running buffer was 1×HBS-P+ containing 1 mM CaCl_2, or 1×HBS-EP+ for calcium-free experiments. Antibody capture was carried out for a contact time of 120 seconds at a flow rate of 10 μl/min resulting in the capture of approximately 40-80 RU. TG2 was injected over the immobilised antibody at concentrations ranging from 25 nM to 400 nM with a contact time up to 600 seconds at a flow rate of 30 μl/min. Dissociation of TG2 was typically measured for up to 5400 seconds (1.5 hours). Regeneration of the chip was then performed using 3 M MgCl_2, for a contact time of 60 seconds at a flow rate of […], followed by a 300 s stabilisation period before the next sample. For each of human and cynomolgus monkey TG2, at least 5 injections at a variety of concentrations were performed in at least two separate experiments.
(§4) Kinetic data were exported from the Biacore T200 Evaluation Software and analysed using GraphPad Prism, where the association phases and dissociation phases were analysed separately using a one phase association model and one-phase exponential decay model respectively. Association rates ($kon$) were calculated for each curve individually, and dissociation rates ($koff$) values from the long dissociation phase data collected. Where $koff$ values were calculated to be $<1\times10^-5$ s^-1, values were set at 1×10^-5 for analysis, as rates slower than this could not be estimated accurately.

In assay [6] the target is T2, cynomolgus monkey TG2. The assay is described as above. The method, then:
as §2, §3, §4

The target of assay [7] is T1, human transglutaminase type 2 (TG2). In words: cell-based or functional assay. The source holds these as a separate data set.
Assay [8] has the same target. In words: cell-based or functional assay. This is another data set of the same source.
For assay [9] the target is unchanged. Description: anti-huTG2 ELISA of HEK293F supernatants. As for the experimental part: Supernatants from HEK293F cells co-transfected with different combinations of humanised AB1 light chains and AB1 heavy chain vectors were assayed in an anti-human IgG ELISA to determine concentration and in an anti huTG2 ELISA. Each supernatant was assayed in triplicate and $IC50$'s determined.
HEK 293F cells were co-transfected with combinations of different humanised light chain vectors in association with different humanised heavy chain vectors. Recombinant human TG2 was used to measure antibody binding by ELISA. […] A similar approach was used to identify optimal pairs of humanized BB7 heavy and light chains, and humanised DC1 heavy and light chains.

B1: cDC001 chimeric antibody (murine DC1 variable regions) (antibody, human IgG1, V domains shown)
VH: EVQLVESGGGLVKPGGSLKLSCAASGFTLSTHAMSWVRQTPEKRLEWVATISSGGRSTYYPDSVKGRFTISRDNVKNTLYLQLSSLRSEDTAVYFCARLISTYWGQGTTLTVSS
VL: DITMTQSPSSIYASLGERVTITCKASQDINSYLTWFQQKPGKSPKILIYLVNRLVDGVPSRFSGSGSGQDYALTISSLEYEDMGIYYCLQYDDFPYTFGGGTKLEIK
notes: also called Chimeric DC1
Turning to B1, the “IC50 of enzymatic inhibition, dansylated lysine incorporation into N,N-dimethylated casein [continued), panel C]” value in assay [1] worked out at 0.851 nM. Further, in the assay with cynomolgus monkey TG2 [2], the “IC50 of enzymatic inhibition, dansylated lysine incorporation into N,N-dimethylated casein [panel A]” value is 5.86 nM. Besides, the midpoint of the response in [3], the EC50, lay at 0.442 nM. Further, the EC50 – broadly, the midpoint of the concentration-response curve – with cynomolgus monkey TG2 [4] is 0.418 nM. In addition, in assay [5], the Kd (as a rule, a measure of binding affinity in units of concentration) was below 0.03 nM; the koff – broadly, the rate constant with which the complex falls apart – was below 1e-05 s⁻¹; the kon (commonly the second-order rate constant of association) amounted to 320000 M⁻¹ s⁻¹. Besides, in the assay with cynomolgus monkey TG2 [6], the Kd was below 0.024 nM, the koff is below 1e-05 s⁻¹ and the kon came out at 420000 M⁻¹ s⁻¹.

B2: hAB005 (hAB001AJ) humanised AB1 antibody (antibody, V domains shown)
VH: EVQLLESGGGLVQPGGSLRLSCAASGFTFSSSAMSWVRQAPGKGLEWVSTISVGGGKTYYPDSVKGRFTISRDNSKNTLYLQMNSLRAEDTAVYYCAKLISLYWGQGTLVTVSS
VL: DIQMTQSPSSLSASVGDRVTITCKASQDINSYLTWFQQKPGKAPKSLIYRTNRLFDGVPSRFSGSGSGTDFFLTISSLQPEDFATYYCLQYDDFPYTFGQGTKVEIK
notes: captured by anti-human IgG1 (Fc); also called Heavy Chain version RHA with Light Chain version RKJ
B2: the “IC50, extracellular TG activity of HK-2 cells, biotin cadaverine incorporation into fibronectin” value in assay [7] stood at 71.8 nM. Besides, in assay [8], the “IC50 of enzymatic inhibition, dansylated lysine incorporation into N,N-dimethylated casein; 2 batches shown [continued), panel C]” value was found to be 6.87 nM. Also, in assay [5], the Kd is below 0.05 nM, the koff is below 1e-05 s⁻¹ and the kon came to 190000 M⁻¹ s⁻¹. Moreover, in the assay with cynomolgus monkey TG2 [6], the Kd was 0.24 nM, the koff came out at 3.4e-05 s⁻¹ and the kon is 140000 M⁻¹ s⁻¹.

B3: VHc/RKE (antibody, V domains shown)
VH: EVQLVESGGGLVKPGGSLKLSCAASGFTLSSSAMSWVRQTPDRRLEWVATISVGGGKTYYPDSVKGRFTISRDNAKNTLYLQMNSLRSEDTAMYYCAKLISLYWGQGTTLTVSS
VL: EIVLTQSPSSLSASVGDRVTITCKASQDINSYLTWYQQKPGKAPKLLIYRTNRLFDGVPSRFSGSGSGTDFFFTISSLQPEDFGTYYCLQYDDFPYTFGGGTKLEIK
notes: also called hAB001HcE
As for B3, in assay [9], the binding result is “binds”.

B4: RHA/VKc (antibody, V domains shown)
VH: EVQLLESGGGLVQPGGSLRLSCAASGFTFSSSAMSWVRQAPGKGLEWVSTISVGGGKTYYPDSVKGRFTISRDNSKNTLYLQMNSLRAEDTAVYYCAKLISLYWGQGTLVTVSS
VL: EIVLTQSPSSMYASLGERVTITCKASQDINSYLTWFQQKPGKSPKTLIYRTNRLFDGVPSRFSGSGSGQDFFLTISSLEYEDMGIYYCLQYDDFPYTFGGGTKLEIK
notes: also called hAB001AKc
B4: the binding result in [9] was “binds”.

B5: RHA/VKc1 (antibody, V domains shown)
VH: EVQLLESGGGLVQPGGSLRLSCAASGFTFSSSAMSWVRQAPGKGLEWVSTISVGGGKTYYPDSVKGRFTISRDNSKNTLYLQMNSLRAEDTAVYYCAKLISLYWGQGTLVTVSS
VL: DIQMTQSPSSMYASLGERVTITCKASQDINSYLTWFQQKPGKSPKTLIYRTNRLFDGVPSRFSGSGSGQDFFLTISSLEYEDMGIYYCLQYDDFPYTFGGGTKLEIK
notes: also called hAB001AKc1
As to B5, in assay [9], the binding result was “binds”.

B6: VHc/RKJ (antibody, V domains shown)
VH: EVQLVESGGGLVKPGGSLKLSCAASGFTLSSSAMSWVRQTPDRRLEWVATISVGGGKTYYPDSVKGRFTISRDNAKNTLYLQMNSLRSEDTAMYYCAKLISLYWGQGTTLTVSS
VL: DIQMTQSPSSLSASVGDRVTITCKASQDINSYLTWFQQKPGKAPKSLIYRTNRLFDGVPSRFSGSGSGTDFFLTISSLQPEDFATYYCLQYDDFPYTFGQGTKVEIK
notes: also called hAB001HcJ
On to B6, for which the binding result in assay [9] is “binds”.
